This is an account of results in patent US20020132976A1 (published 2002).

The target in the test is T1, membrane-bound HLA-A0201 molecule on T2 cells (human).
T1 construct: whole, on cells; also called surface HLA-A0201 molecules; human MHC class 1 molecule
Kind of test: T2 cell HLA-A0201 stabilisation, BB7.2 staining, flow cytometry. As for the experimental part: Thus, the detection of this specific epitope is indicative of stable membrane-bound HLA-A0201 molecules loaded with peptide. Subsequent dissociation of peptides from the HLA class 1 MHC molecules results in the loss of BB7.2 monoclonal antibody binding.
T2 cells were propagated in Iscove's complete medium (iscove's medium supplemented with 10% heat-inactivated bovine serum, 120.0 units per ml of penicillin G sodium, 120 μg per ml of streptomycin sulphate, and 0.35 mg per ml of L-glutamine). The ability of PSA peptides (Table 1) to bind and stabilize surface HLA-A0201 molecules on T2 cells was determined utilizing a protocol documented in the art (Deng, Y. (1997) J Immune 158:1507-1515). In essence, 0.5×10⁶ T2 cells were incubated with 125.0 μM of the test peptide in 200.0 μl of serum-free culture medium (Iscove's medium supplemented with 120.0 units per ml of penicillin G sodium, 120.0 μg per ml of streptomycin sulphate and 0.35 mg per ml of L-glutamine) overnight at 37° C. Subsequently, cells were washed twice with Iscove's medium (without bovine serum) to remove free PSA peptide. […] The binding of BB7.2 was detected via the addition of 100.0 μl of PBA containing […] of goat anti-mouse IgG-Fc fluorescein (FITC) conjugate (BETHYL Laboratories Inc.). […] Samples were analyzed by Flow Cytometry. Results were expressed in units of Fluorescence Index (FI), calculated by the equation: […]
Background: A flow cytometer gives signals particle by particle.

Consider DLHVISNDV [CLP-317], for which the binding result was “no binding”.
